Changes are numbered by the printed parent chain. Like-named read-outs stand apart in the source and are kept apart here.
Key:
[1] = target: T1, N-terminal FLAG-tagged cynomolgus monkey ROBO4, cynoROBO4-2 (pCI-FLAG-cynoROBO4-2) (cynomolgus monkey, UniProt Q8WZ75 28-1007 (human entry)); experiment: flow cytometry (FC500), HEK293 cells transfected with pCI-FLAG-cynoROBO4-2, antibody at 10 µg/mL, FITC goat anti-human IgG Fc; control histogram IgG (human IgG)
T1 chain: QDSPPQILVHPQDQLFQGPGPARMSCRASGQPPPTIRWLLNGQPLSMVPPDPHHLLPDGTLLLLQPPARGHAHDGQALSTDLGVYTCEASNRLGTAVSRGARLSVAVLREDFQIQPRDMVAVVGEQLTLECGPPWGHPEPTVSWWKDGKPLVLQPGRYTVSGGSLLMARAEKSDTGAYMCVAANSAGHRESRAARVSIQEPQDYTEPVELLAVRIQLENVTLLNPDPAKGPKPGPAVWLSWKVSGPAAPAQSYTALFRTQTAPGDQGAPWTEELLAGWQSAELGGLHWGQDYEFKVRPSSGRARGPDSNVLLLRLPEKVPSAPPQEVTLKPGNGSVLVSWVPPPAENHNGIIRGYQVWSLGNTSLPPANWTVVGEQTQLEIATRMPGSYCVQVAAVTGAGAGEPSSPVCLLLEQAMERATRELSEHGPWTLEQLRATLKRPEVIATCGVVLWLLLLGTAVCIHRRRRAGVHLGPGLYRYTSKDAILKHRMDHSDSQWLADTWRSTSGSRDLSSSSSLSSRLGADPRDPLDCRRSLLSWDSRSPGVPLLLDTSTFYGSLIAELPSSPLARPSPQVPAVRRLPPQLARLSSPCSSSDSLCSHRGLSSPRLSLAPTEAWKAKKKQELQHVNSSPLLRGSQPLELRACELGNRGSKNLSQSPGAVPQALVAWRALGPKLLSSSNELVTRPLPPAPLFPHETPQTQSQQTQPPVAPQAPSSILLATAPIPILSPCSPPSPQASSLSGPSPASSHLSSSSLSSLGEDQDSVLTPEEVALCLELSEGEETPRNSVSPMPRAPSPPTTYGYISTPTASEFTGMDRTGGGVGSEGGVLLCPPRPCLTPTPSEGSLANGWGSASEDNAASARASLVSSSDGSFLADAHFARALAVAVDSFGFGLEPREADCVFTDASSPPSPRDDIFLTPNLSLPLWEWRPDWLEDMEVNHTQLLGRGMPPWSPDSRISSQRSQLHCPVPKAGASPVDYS

[2] = target: T1, N-terminal FLAG-tagged cynomolgus …; experiment: as above
[3] = target: N-terminal FLAG-tagged human ROBO1 (pCI-FLAG-hROBO1-transfected HEK293 cells) (human, UniProt Q9Y6N7 58-1651); experiment: flow cytometry, HEK293 cells transfected with pCI-FLAG-hROBO1, anti-mouse IgG FITC; control histogram IgG
Experimental: HEK293 cells were inoculated at a concentration of 1.2×10⁶ cells/dish or 1.5×10⁶ cells/dish to a 60-mm dish (manufactured by Corning Inc.) and cultured overnight in a DMEM medium containing 10% FBS at 37° C. under 5% CO₂ conditions. On the next day, the HEK293 cells were transfected with pCI-hROBO4, pCI-FLAG-hROBO1, pCI-hROBO2, or pCI-hROBO3 using FuGENE6 Transfection Reagent and further cultured overnight at 37° C. under 5% CO₂ conditions. On the next day, the expression vector-transfected cells were treated with TrypLE Express (manufactured by Life Technologies Corp.), washed with PBS containing 5% FBS, and then suspended in PBS containing 5% FBS. The obtained cell suspension was used in flow cytometry analysis.
Each cell suspension prepared in 4)-4-1 was centrifuged, and the supernatant was removed. […] Data was analyzed using Flowjo. The histogram of FITC fluorescence intensity was prepared. The antibody was determined to bind in a specific manner when the histogram of MAb1 was shifted to a stronger fluorescence intensity region compared with the histogram of the negative control Mouse IgG1 or Mouse IgG2a. […]

Sequence of N-terminal FLAG-tagged human ROBO1 (pCI-FLAG-hROBO1-transfected HEK293 cells) (Q9Y6N7 other isoform, or with tags, fused parts or gaps): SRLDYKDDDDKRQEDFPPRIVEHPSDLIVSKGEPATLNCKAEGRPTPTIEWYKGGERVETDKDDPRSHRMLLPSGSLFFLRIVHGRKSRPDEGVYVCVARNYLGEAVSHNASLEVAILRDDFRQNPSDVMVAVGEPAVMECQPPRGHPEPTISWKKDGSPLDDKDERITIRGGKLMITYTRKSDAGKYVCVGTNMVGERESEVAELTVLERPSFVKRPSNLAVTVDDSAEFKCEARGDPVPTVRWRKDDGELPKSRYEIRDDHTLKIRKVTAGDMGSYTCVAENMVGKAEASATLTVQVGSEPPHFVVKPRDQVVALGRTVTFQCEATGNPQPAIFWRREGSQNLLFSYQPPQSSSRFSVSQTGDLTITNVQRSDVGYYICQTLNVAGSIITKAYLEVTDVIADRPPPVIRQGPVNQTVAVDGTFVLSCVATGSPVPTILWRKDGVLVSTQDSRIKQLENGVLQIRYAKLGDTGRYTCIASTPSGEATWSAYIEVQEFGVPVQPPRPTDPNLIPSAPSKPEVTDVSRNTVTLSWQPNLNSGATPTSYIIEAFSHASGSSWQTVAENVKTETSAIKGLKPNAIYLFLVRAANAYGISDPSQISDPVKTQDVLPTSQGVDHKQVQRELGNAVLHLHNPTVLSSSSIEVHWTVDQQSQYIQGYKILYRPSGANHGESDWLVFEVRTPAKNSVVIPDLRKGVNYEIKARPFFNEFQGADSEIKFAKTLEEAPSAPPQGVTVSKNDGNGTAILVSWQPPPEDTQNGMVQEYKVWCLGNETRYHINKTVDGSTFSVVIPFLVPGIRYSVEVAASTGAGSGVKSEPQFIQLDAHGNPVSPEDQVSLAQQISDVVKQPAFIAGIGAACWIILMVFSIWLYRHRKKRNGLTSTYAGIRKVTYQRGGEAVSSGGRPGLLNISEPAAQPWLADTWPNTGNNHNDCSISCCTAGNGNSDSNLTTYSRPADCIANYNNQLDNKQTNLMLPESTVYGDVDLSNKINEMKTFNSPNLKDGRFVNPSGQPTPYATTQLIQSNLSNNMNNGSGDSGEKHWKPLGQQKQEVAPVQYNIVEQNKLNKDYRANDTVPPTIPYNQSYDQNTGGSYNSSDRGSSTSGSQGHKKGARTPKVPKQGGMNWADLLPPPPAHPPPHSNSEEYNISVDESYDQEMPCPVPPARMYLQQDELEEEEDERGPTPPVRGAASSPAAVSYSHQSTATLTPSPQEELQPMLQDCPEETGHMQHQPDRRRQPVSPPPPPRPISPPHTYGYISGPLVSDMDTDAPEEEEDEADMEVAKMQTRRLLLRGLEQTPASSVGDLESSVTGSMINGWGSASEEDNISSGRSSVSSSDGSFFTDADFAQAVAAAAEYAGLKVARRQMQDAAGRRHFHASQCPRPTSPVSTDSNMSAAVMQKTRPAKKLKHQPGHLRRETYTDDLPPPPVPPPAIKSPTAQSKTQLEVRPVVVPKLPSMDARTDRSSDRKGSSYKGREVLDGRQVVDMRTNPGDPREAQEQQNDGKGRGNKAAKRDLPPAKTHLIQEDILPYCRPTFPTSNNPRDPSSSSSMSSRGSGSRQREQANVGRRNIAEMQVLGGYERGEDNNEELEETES

B1: humanized MAb1 antibody H-1143 (antibody, human IgG2, kappa, V domains shown)
VH: EVQLVESGGGLVQPGGSLRLSCAASGFTFSTYAMSWVRQAPGKGLEWVATISQGGTYTYYPDSVKGRFTISRDNAKNTLYLQMNSLRAEDTAVYYCARLIYYDYLDYWGQGTLVTVSS
VL: DIVMTQSPLSLPVTLGEPASISCRSSQSLENENKNLYLNWYLQKPGQSPQLLIYRVSNRFSGVPDRFSGSGSGTDFTLKISRVEAEDVGVYYCLQVTHVPWTFGPGTKVDIKR
notes: Human IgG2 / kappa constant regions; also called hMAb1-H2-type heavy chain + hMAb1-L2-type light chain
binding result [1]: binds

B2: humanized MAb1 antibody H-2140 (antibody, human IgG2, kappa, V domains shown)
VH: B1 VH with G44R
VL: B1 VL with E32S, K34G, L36T
notes: Human IgG2 / kappa constant regions; also called hMAb1-H4-type heavy chain + hMAb1-L1-type light chain
binding result [2]: binds

B3: anti-ROBO4 mouse monoclonal antibody MAb1 (antibody, mouse IgG1, V domains shown)
VH: EVQLVESGGGLVKPGGSLKLSCAASGFTFSTYAMSWVRQTPEKRLEWVATISNGGTYTYYPDSVKGRFTISRDNAENTLYLQMSSLRSEDTAMYFCARLIYYDYLDYWGHGTTLTVSS
VL: DAVMTQTPLSLPVSLGDQASISCRSSQSLENSNGNTYLNWYFQKPGQSPQLLIYRVSNRFSGVLDRFSGSGSGTDFTLKISRVEAEDFGVYFCLQVTHVPWTFGGGTKLEIKR
notes: Mouse IgG1 (gamma1), kappa light chain, purified from hybridoma supernatant; also called parent antibody MAb1
binding result [3]: no binding (tested: 10 µg/mL)

— patent US20150098945A1 (Daiichi Sankyo, published 2015)
